Measurements reported in the supplement of paper PMC9112550, “Optimization of the antimicrobial peptide Bac7 by deep mutational scanning” (BMC Biology, 2022).

system: Escherichia coli TOP10; assay: shrunken log2 fold change of peptide-encoding DNA abundance (4.5 h post-induction vs induction); higher = less antimicrobial activity (less host growth inhibition); settings: time post-induction: 4.5 h; library: site-saturation at positions 5, 18, 19, 20
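Note: peptides expressed intracellularly from a pBAD plasmid library in pooled LB shake-flask culture, induced with 0.3% L-arabinose, DNA abundance read by NGS, three biological replicates, DESeq2 with apeglm shrinkage.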

Sequence	shrunken log2 fold change
RRIRGRPPRLPRPRPRPRGGPRP	1.05
RRIRFRPPRLPRPRPRPNCNPRP	-0.469
RRIRWRPPRLPRPRPRPWAYPRP	-0.502
RRIRFRPPRLPRPRPRPIQFPRP	-0.000317
RRIRHRPPRLPRPRPRPAHTPRP	-0.199
RRIRHRPPRLPRPRPRPQCAPRP	0.191
RRIRLRPPRLPRPRPRPDCDPRP	0.183
RRIRGRPPRLPRPRPRPSMVPRP	0.512
RRIRLRPPRLPRPRPRPHPHPRP	-0.0325
RRIRDRPPRLPRPRPRPHDDPRP	0.014
RRIRWRPPRLPRPRPRPPVTPRP	0.283
RRIRFRPPRLPRPRPRPMNCPRP	-0.735
RRIRYRPPRLPRPRPRPAHYPRP	-0.18
RRIRCRPPRLPRPRPRPIMTPRP	-0.00708
RRIRTRPPRLPRPRPRPLKWPRP	-0.205
RRIRARPPRLPRPRPRPVLRPRP	0.228
RRIRCRPPRLPRPRPRPNYQPRP	-0.212
RRIRVRPPRLPRPRPRPDRNPRP	-0.162
RRIRERPPRLPRPRPRPCQSPRP	-0.127
RRIRMRPPRLPRPRPRPYHSPRP	-0.0421
RRIRVRPPRLPRPRPRPYLQPRP	-0.946
RRIRERPPRLPRPRPRPDELPRP	-0.00377
RRIRARPPRLPRPRPRPDNCPRP	-0.153
RRIRARPPRLPRPRPRPNYCPRP	-0.223
RRIRHRPPRLPRPRPRPVYHPRP	-0.282

Sequence	shrunken log2 fold change
RRIRMRPPRLPRPRPRPHPGPRP	0.293
RRIRGRPPRLPRPRPRPGIWPRP	0.758
RRIRDRPPRLPRPRPRPTNRPRP	-0.149
RRIRSRPPRLPRPRPRPIICPRP	-0.258
RRIRARPPRLPRPRPRPAHIPRP	0.241
RRIRKRPPRLPRPRPRPMDAPRP	0.415
RRIRIRPPRLPRPRPRPWQGPRP	-0.125
RRIRFRPPRLPRPRPRPYTPPRP	-1.28
RRIRCRPPRLPRPRPRPFSAPRP	-0.565
RRIRGRPPRLPRPRPRPVMFPRP	0.451
RRIRIRPPRLPRPRPRPDHAPRP	-0.0379
RRIRDRPPRLPRPRPRPESCPRP	0.629
RRIRCRPPRLPRPRPRPICRPRP	-0.0824
RRIRRRPPRLPRPRPRPNMWPRP	-0.253
RRIRMRPPRLPRPRPRPHRAPRP	0.677
RRIRCRPPRLPRPRPRPPIIPRP	-0.294
RRIRKRPPRLPRPRPRPPSLPRP	0.46
RRIRARPPRLPRPRPRPYYQPRP	-0.374
RRIRSRPPRLPRPRPRPAHTPRP	-0.379
RRIRCRPPRLPRPRPRPPHHPRP	0.352
RRIRARPPRLPRPRPRPWIDPRP	-0.0113
RRIRPRPPRLPRPRPRPEYDPRP	0.101
RRIRERPPRLPRPRPRPHINPRP	-0.713
RRIRIRPPRLPRPRPRPKKEPRP	-0.438
RRIRFRPPRLPRPRPRPFQCPRP	-0.0784
